Measurements reported in US20230227565A1, “Method for Treating CD127-Positive Cancers by Administering an Anti-CD127 Agent” (OSE IMMUNOTHERAPEUTICS, priority 2021, published 2023).

Assays:
normal T cells = experiment: Phagocytosis of normal T cells by macrophages; type: cell-based, human; details: FIG. 10
Procedure: (§1) Phagocytosis assays. In vitro phagocytosis assays were performed by 1-hour coculture of 2,5×10^4 human primary M1 or THP1 macrophages labeled with CellTrackerGreen (ThermoFisher, Waltham, Mass., USA, 1/2000, 20 min at 37° C.) and 5×10^4 leukemic cells labeled with CPD (ThermoFisher, 1/2000 10 min at 37° C.) in serum-free RPMI. Phagocytosis was analyzed by a CytoFLEX flow cytometer (Beckman, Brea, Calif., USA) and analysis using FlowJo software (TreeStar, BD Life Sciences Franklin Lakes, N.J., USAs). The phagocytic index was calculated as follows: fold change of percentage of CPD+ cells in CTG+ macrophages compared to the one detected by treatment with istotype control multiplied by the fold change in geometric mean in APC fluorescence (CPD) in CTG+ macrophages compared to the one detected with isotype control.

macrophages [1] = experiment: Toxicity on macrophages (viability); details: FIG. 9; increasing doses
macrophages [2] = experiment: Phagocytosis of macrophages by macrophages (autophagocytosis); details: FIG. 11A
Procedure: as §1

“5F9: reference pro-phagocytic anti-CD47 antibody” was tested, and the “phagocytosis of normal T cells by macrophages” value (normal T cells) was “A similar result is obtained”, the “overall number of live macrophages” value (macrophages [1]) was “drastically reduced” and the autophagocytosis of macrophages (macrophages [2]) was “have an autophagocytosis activity”.
